Data: patent US20210355205A1

How the values were obtained:
[1] = molecular target: Cynomolgus IL-5 (cynomolgus monkey); test: cell-based or functional assay
[2] = molecular target: recombinant human IL-5 (human) (UniProt P05113); test: cell-based or functional assay

Mean (pM): mean IC50, TF-1.6G4 cell line proliferation assay [1]: 584 pM
Mean (pM): mean IC50, TF-1.6G4 cell line proliferation assay [2]: 534 pM
Substance: Mepolizumab (antibody)
